Consider 26 molecules from US20090111745A1 (DOMANTIS, published 2009).

In assay [1] the target is T1, mouse serum albumin (mouse, UniProt P07724 25-608).
T1 construct: also called MSA
Kind of assay: table of affinities (KD); BIACORE on serum albumin-coated chip according to Example 1.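 Also: surface plasmon resonance with dAbs flowed over a chip carrying human, rat or mouse serum albumin, blocked uncoated flow cell as reference, KD from on- and off-rate curve fits.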 Background: Surface plasmon resonance follows binding to a sensor surface in real time, without labels.
Protocol: (§1) dAbs that bound serum albumin on a BIACORE chip (Biacore AB) were then further analysed to obtain information on affinity. The analysis was performed using a CM5 chip (carboxymethylated dextran matrix) that was coated with serum albumin. Flow cell 1 was an uncoated, blocked negative control, flow cell 2 was coated with HSA, flow cell 3 was coated with RSA and flow cell 4 was coated with MSA. The serum albumins were immobilised in acetate buffer pH 5.5 using the BIACORE coating wizard which was programmed to aim for 500 resonance units (RUs) of coated material. Each dAb of interest was expressed in the periplasm of E. coli on a 200 mL-500 mL scale and purified from the supernatant using batch absorption to protein A-streamline affinity resin (Amersham, UK) for the VH_{^S} and to protein L-agarose affinity resin (Affitech, Norway) for the Vκs followed by elution with glycine at pH 2.2 and buffer exchange to PBS. A range of concentrations of dAb were prepared (in the range 5 nM to 5 μM) by dilution into BIACORE HBS-EP buffer and flowed across the BIACORE chip.

Assay [2] has as its target T2, human serum albumin (human, UniProt P02768 25-609).
T2 construct: also called HSA; HAS
Described as above.
Protocol: as §1

Assay [3] deals with T3, rat serum albumin (rat, UniProt P02770 25-608).
T3 construct: also called RSA
The description is as above.
Protocol: as §1

Assay [4] deals with T2, human serum albumin. Nature of the assay: phage display selection on albumin (figure legend).
Assay [5] addresses T3, rat serum albumin. Nature of the assay: phage display selection on albumin (figure legend).
For assay [6], the target named is T3, rat serum albumin. Nature of the assay: affinity (KD) for rat serum albumin; method not stated in the table (BIACORE SPR in Example 1).
In assay [7] the target is T2, human serum albumin. Kind of assay: BIACORE SPR, albumin on a CM5 chip, dAb in solution.
Protocol: as §1
Assay [8] deals with T2, human serum albumin. Kind of assay: BIACORE SPR screen, column 'Biacore binding'.
Description: (§2) If a significant proportion of the clones in one of the selections were positive in the phage ELISA, then DNA from this selection was cloned into an expression vector for production of soluble dAb, and individual colonies were picked. […] Clones were then sequenced and unique dAb sequences identified.
In assay [9] the target is T1, mouse serum albumin. Kind of assay: BIACORE SPR screen, column 'Biacore binding'.
Description: as §2
Assay [10] addresses T3, rat serum albumin. Nature of the assay: BIACORE SPR screen, column 'Biacore binding'.
Description: as §2

B1: DOM7h-22 (other)
VH: EVQLLESGGGLVQPGGSLRLSCAASGFTFSKYWMSWVRQAPGKGLEWVSSIDFMGPHTYYADSVKGRFTISRDNSKNTLYLQMNSLRAEDTAVYYCAKGRTSMLPMKGKFDYWGQGTLVTVSS
Broadly, the Kd is the equilibrium constant for the complex coming apart. A high value points to a looser complex. Consider B1, for which the binding result with mouse serum albumin [1] and with rat serum albumin [3] was “no binding” throughout. For the same molecule, in the assay with human serum albumin [2], the Kd came to 60 nM.

B2: DOM7h-6 (other)
VL: DIQMTQSPSSLSASVGDRVTITCRASQSISSYLNWYQQKPGKAPTLLIYRLSVLQSGVPSRFSGSGSGTDFTLTISSLQPEDFATYYCQQTYNVPPTFGQGTKVEIKR
Regarding B2, the binding result with human serum albumin [4] was “binds”.

B3: DOM7m-16 (other)
VL: DIQMTQSPSSLSASVGDRVTITCRASQSIIKHLKWYQQKPGKAPKLLIYGASRLQSGVPSRFSGSGSGTDFTLTISSLQPEDFATYYCQQGARWPQTFGQGTKVEIKR
notes: also called MSA16
As for B3, the equilibrium dissociation constant (Kd) with mouse serum albumin [1] was 50 nM; with human serum albumin [2] it was greater than 5000 nM.

B4: DOM7m-26 (other)
VL: DIQMTQSPSSLSASVGDRVTITCRASQSIYYHLKWYQQKPGKAPKLLIYKASTLQSGVPSRFSGSGSGTDFTLTISSLQPEDFATYYCQQVRKVPRTFGQGTKVEIKR
notes: also called MSA 26
Consider B4, for which the Kd with mouse serum albumin [1] was 60 nM; with human serum albumin [2] it was greater than 5000 nM.

B5: DOM7h-3 (other)
VL: DIQMTQSPSSLSASVGDRVTITCRASQWIDTGLAWYQQKPGKAPRLLIYNVSRLQSGVPSRFSGSGSGTDFTLTISSLQPEDFATYYCQQYWGSPTTFGQGTKVEIKR
For B5, the binding result in the assay with human serum albumin [4] is “binds”.

B6: DOM7r-15 (other)
VL: DIQMTQSPSSLSASVGDRVTITCRASQSIGRRLKWYQQKPGAAPRLLIYRTSWLQSGVPSRFSGSGSGTDFTLTISSLQPEDFATYYCQQTSQWPHTFGQGTKVEIKR
For B6, the binding result in the assay with rat serum albumin [5] is given as “binds”.

B7: DOM7r-27 (other)
VH: EVQLLESGGGLVQPGGSLRLSCAASGFTFWPYTMSWVRQAPGKGLEWVSTISPFGSTTYYADSVKGRFTISRDNSKNTLYLQMNSLRAEDTAVYYCAKSDVLKTGLDGFDYWGQGTLVTVSS
On to B7, for which the dissociation constant Kd with mouse serum albumin [1] and in the assay with rat serum albumin [6] was 250 nM in each case. In addition, the binding result in the assay with human serum albumin [2] is given as “no binding”.

B8: DOM7h-23 (other)
VH: EVQLLESGGGLVQPGGSLRLSCAASGFTFYDYNMSWVRQAPGKGLEWVSTITHTGGVTYYADSVKGRFTISRDNSKNTLYLQMNSLRAEDTAVYYCAKQNPSYQFDYWGQGTLVTVSS
For B8, the results for the Kd with human serum albumin [7] and with human serum albumin [2] were 500 to 5000 nM and 900 nM, respectively. Moreover, the binding result with mouse serum albumin [1] and with rat serum albumin [3] was “no binding” in each case.

B9: DOM7h-24 (other)
VH: EVQLLESGGGLVQPGGSLRLSCAASGFTFHRYSMSWVRQAPGKGLEWVSTILPGGDVTYYADSVKGRFTISRDNSKNTLYLQMNSLRAEDTAVYYCAKQTPDYMFDYWGQGTLVTVSS
For the molecule B9, in the assay with human serum albumin [8], the binding result was “binds”.

B10: DOM7h-27 (other)
VH: EVQLLESGGGLVQPGGSLRLSCAASGFTFSDYRMSWVRQAPGKGLEWVSTIISNGKFTYYADSVKGRFTISRDNSKNTLYLQMNSLRAEDTAVYYCAKQDWMYMFDYWGQGTLVTVSS
Take B10: the binding result with human serum albumin [8] is reported as “binds”.

B11: DOM7h-26 (other)
VH: EVQLLESGGGLVQPGGSLRLSCTASGFTFDEYNMSWVRQAPGKGLEWVSTILPHGDRTYYADSVKGRFTISRDNSKNTLYLQMNSLRAEDTAVYYCAKQDPLYRFDYWGQGTLVTVSS
As to B11, the Kd is 100 to 500 nM with human serum albumin [7] and 300 nM with human serum albumin [2]. Besides, the binding result with mouse serum albumin [1] and with rat serum albumin [3] was “no binding” in each case.

B12: DOM7r-7 (other)
VL: DIQMTQSPSSLSASVGDRVTITCRASQYIGRYLRWYQQKPGKAPKLLIYDSSVLQSGVPSRFSGSGSGTDFTLTISSLQPEDFATYYCQQRYSSPYTFGQGTKVEIKR
As to B12, the binding result in the assay with mouse serum albumin [9] and in the assay with rat serum albumin [10] was “binds” each time.

B13: DOM7r-5 (other)
VL: DIQMTQSPSSLSASVGDRVTITCRASQYISRQLRWYQQKPGKAPRLLIYGASVLQSGIPSRFSGSGSGTDFTLTISSLQPEDFATYYCQQRYITPYTFGQGTKVEVKR
As to B13, in the assay with rat serum albumin [10], the binding result is “binds”.

B14: DOM7r-17 (other)
VL: DIQMTQSPSSLSASVGDRVTITCRASQKIYNNLRWYQQKPGKAPKLLIYNTSILQSGVPSRFSGSGSGTDFTLTISSLQPEDFATYYCQQRWRAPYTFGQGTKVEIKR
With B14, the binding result in the assay with rat serum albumin [5] is “binds”.

B15: DOM7r-14 (other)
VL: DIQMTQSPSSLSASVGDRVTITCRASQHIHRELRWYQQKPGKAPKLLIYQASRLQSGVPSRFSGSGSGTDFTLTISSLQPEDFATYYCQQRYRVPYTFGQGTKVEIKR
For the molecule B15, the binding result with human serum albumin [2] is reported as “no binding”. The molecule also came in with a dissociation constant (Kd) in the assay with rat serum albumin [3] of 50 nM.

B16: DOM7r-4 (other)
VL: DIQMTQSPSSLSASVGDRVTITCRASQWIGRYLRWYQQKPGKAPKLLIYNGSQLQSGVPSRFSGSGSGTDFTLTISSLQPEDFATYYCQQRYLQPYTFGQGTKVEIKR
For B16, the binding result with mouse serum albumin [9] and with rat serum albumin [10] was “binds” in each case.

B17: DOM7r-18 (other)
VL: DIQMTQSPSSLSASVGDRVTITCRASQWIYKSLGWYQQKPGKAPKLLIYQSSLLQSGVPSRFSGSGSGTDFTLTISSLQPEDFATYYCQQYHQMPRTFGQGTKVEIKR
In the case of B17, the binding result in the assay with rat serum albumin [5] is “binds”.

B18: DOM7r-13 (other)
VL: DIQMTQSPSSLSASVGDRVTITCRASQHIHRELRWYQQKPGKAPKLLIYQASRLQSGVPSRFSGSGSGTDFTLTISSLQPEDFATYYCQQKYLPPYTFGQGTKVEIKR
As to B18, the binding result with human serum albumin [2] is “no binding”. In the assay with rat serum albumin [3], this molecule displayed a Kd of 80 nM.

B19: DOM7h-2 (other)
VL: DIQMTQSPSSLSASVGDRVTITCRASQKIATYLNWYQQKPGKAPKLLIYRSSSLQSAVPSRFSGSGSGTVFTLTISSLQPEDFATYYCQQTYAVPPTFGQGTKVEIKR
Consider B19, for which the dissociation constant (Kd) was 10 to 100 nM with human serum albumin [7], greater than 5000 nM with mouse serum albumin [1], 70 nM with human serum albumin [2] and greater than 5000 nM with rat serum albumin [3].

B20: DOM7r-16 (other)
VL: DIQMTQSPSSLSASVGDRVTITCRASQKIYKNLRWYQQKPGKAPKLLIYNSSILQSGVPSRFSGSGSGTDFTLTISSLQPEDFATYYCQQRYLSPYTFGQGTKVEIKR
With B20, the Kd in the assay with mouse serum albumin [1] and in the assay with rat serum albumin [6] was 1000 nM in each case. In addition, the binding result with human serum albumin [2] is listed as “no binding”.

B21: DOM7r-8 (other)
VL: DIQMTQSPSSLSASVGDRVTITCRASQWIHRQLKWYQQKPGKAPKLLIYYASILQSGVPSRFSGSGSGTDFTLTISSLQPEDFATYYCQQTFSKPSTFGQGTKVEIKR
Consider B21, for which the Kd in the assay with mouse serum albumin [1] came out at 40 nM; with rat serum albumin [3], 20 nM. In addition, the binding result with human serum albumin [2] was “no binding”.

B22: DOM7r-3 (other)
VL: DIQMTQSPSSLSASVGDRVTITCRASQYIGRYLRWYQQKPGKAPKLLIYDSSVLQSGVPSRFSGSGSGTDFTLTISSLQPEDFATYYCQQRYMQPFTFGQGTKVEIKR
In the case of B22, the dissociation constant (Kd) was greater than 5000 nM with mouse serum albumin [1] and 12 nM with rat serum albumin [6]. Moreover, the binding result with human serum albumin [2] is “no binding”.

B23: DOM7r-19 (other)
VL: DIQMTQSPSSLSASVGDRVTITCRASQWIYRHLRWYQQKPGKAPKLLIYDASRLQSGVPTRFSGSGSGTDFTLTISSLQPEDFATYYCQQTHNPPKTFGQGTKVEIKR
As for B23, the binding result with rat serum albumin [5] was “binds”.

B24: DOM7h-25 (other)
VH: EVQLLESGGGLVQPGGSLRLSCAASGFTFWKYNMAWVRQAPGKGLEWVSTILGEGNNTYYADSVKGRFTISRDNSKNTLYLQMNSLRAEDTAVYYCAKTMDYKFDYWGQGTLVTVSS
For B24, the binding result in the assay with human serum albumin [8] is recorded as “binds”.

B25: DOM7h-4 (other)
VL: DIQMTQSPSSLSASVGDRVTITCRASQEIYSWLAWYQQRPGKAPKLLIYNASHLQSGVPSRFSGSGSGTDFTLTISSLQPEDFATYYCQQVIGDPVTFGQGTKVEIKR
As to B25, the binding result with human serum albumin [4] is given as “binds”.

B26: DOM7h-21 (other)
VH: EVQLLESGGGLVQPGGSLRLSCAASGFTFDLYDMSWVRQAPGKGLEWVSSIVNSGVRTYYADSVKGRFTISRDNSKNTLYLQMNSLRAEDTAVYYCAKLNQSYHWDFDYWGQGTLVTVSS
Regarding B26, the binding result with human serum albumin [8] is reported as “binds”.
